Assay results as given in patent US20050037969A1 (ARBOR VITA, published 2005).
Ends that are not written are not given here. * marks the point of attachment. Biotin = O=C1N[C@H]2[C@H](CS[C@H]2CCCCC(=O)*)N1

T1: GST-CASK PDZ domain fusion protein (Homo sapiens, UniProt O14936 486-575)
T1 construct: also called Homo sapiens CASK protein
T1 sequence: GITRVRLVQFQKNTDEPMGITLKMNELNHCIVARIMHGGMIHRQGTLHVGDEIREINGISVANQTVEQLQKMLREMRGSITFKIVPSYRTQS

T2: GST-TAX-IP43 PDZ domain fusion protein (human, UniProt Q13884 109-180)
T2 construct: also called TAX43; not shown: glutathione S-transferase encoded by vector pGEX-3X (Pharmacia)
T2 sequence: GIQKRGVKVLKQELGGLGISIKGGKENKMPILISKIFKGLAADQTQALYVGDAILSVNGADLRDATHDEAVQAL

T3: GST-TAX-IP2 PDZ domain fusion protein (human, UniProt O14908 129-216)
T3 construct: also called TAX-1P2; TAX2; not shown: glutathione S-transferase encoded by vector pGEX-3X (Pharmacia)
T3 chain: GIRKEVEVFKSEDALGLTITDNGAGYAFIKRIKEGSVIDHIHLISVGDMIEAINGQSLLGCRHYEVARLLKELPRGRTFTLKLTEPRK

T4: GST-PTN-4 PDZ domain fusion protein (Homo sapiens (Human), UniProt P29074 517-605)
T4 construct: also called protein-tyrosine phosphatase meg1; not shown: glutathione S-transferase encoded by vector pGEX-3X (Pharmacia)
T4 sequence: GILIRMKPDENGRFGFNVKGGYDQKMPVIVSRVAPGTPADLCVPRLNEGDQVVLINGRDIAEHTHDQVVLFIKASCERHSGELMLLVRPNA

T5: GST-MPP1 PDZ domain fusion protein (Homo sapiens (Human), UniProt Q00013 67-152)
T5 construct: also called p55; 55 Kd erythrocyte membrane protein; not shown: glutathione S-transferase encoded by vector pGEX-3X (Pharmacia)
T5 sequence: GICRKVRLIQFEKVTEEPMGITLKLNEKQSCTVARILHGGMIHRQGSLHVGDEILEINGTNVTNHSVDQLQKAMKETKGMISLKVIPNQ

T6: GST-prIL16 fusion protein (PDZ domains 1-2) (Homo sapiens (Human), UniProt Q14005 1111-1324)
T6 construct: also called putative interleukin 16 precursor; not shown: glutathione S-transferase encoded by vector pGEX-3X (Pharmacia)
T6 sequence: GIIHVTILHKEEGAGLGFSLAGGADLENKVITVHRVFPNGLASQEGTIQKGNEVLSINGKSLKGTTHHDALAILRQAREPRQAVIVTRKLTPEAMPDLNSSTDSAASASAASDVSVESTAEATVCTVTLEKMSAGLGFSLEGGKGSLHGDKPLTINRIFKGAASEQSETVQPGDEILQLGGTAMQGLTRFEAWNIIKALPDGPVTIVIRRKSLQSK

T7: GST-cytohesin binding protein PDZ domain fusion protein (Homo sapiens (Human), UniProt O60759 74-165)
T7 construct: also called CBP; not shown: glutathione S-transferase encoded by vector pGEX-3X (Pharmacia)
T7 sequence: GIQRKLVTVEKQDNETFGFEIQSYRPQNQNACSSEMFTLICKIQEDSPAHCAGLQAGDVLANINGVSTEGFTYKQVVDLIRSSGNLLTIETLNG

T8: GST-AF6 PDZ domain fusion protein (Homo sapiens (Human), UniProt P55196 1001-1093)
T8 construct: also called af-6 protein; not shown: glutathione S-transferase encoded by vector pGEX-3X (Pharmacia)
T8 sequence: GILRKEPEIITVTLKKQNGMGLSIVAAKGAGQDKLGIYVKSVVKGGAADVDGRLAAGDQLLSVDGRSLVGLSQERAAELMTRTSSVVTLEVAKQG

T9: GST-RGS12 PDZ domain fusion protein (human, UniProt O14924 17-85)
T9 construct: also called human regulator of G-protein signalling 12; not shown: glutathione S-transferase encoded by vector pGEX-3X (Pharmacia)
T9 sequence: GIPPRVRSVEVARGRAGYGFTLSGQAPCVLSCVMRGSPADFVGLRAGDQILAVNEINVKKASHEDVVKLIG

T10: GST-mouse syntenin fusion protein (Mus musculus, UniProt O08992 108-286)
T10 construct: also called Mus musculus Syntenin; not shown: glutathione S-transferase encoded by vector pGEX-3X (Pharmacia)
T10 chain: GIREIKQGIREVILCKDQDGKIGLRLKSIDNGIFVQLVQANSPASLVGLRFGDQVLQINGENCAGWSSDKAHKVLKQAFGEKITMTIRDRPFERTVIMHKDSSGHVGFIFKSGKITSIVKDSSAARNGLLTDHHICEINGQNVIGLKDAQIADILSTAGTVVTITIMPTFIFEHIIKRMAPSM

T11: X11β PDZ-GST fusion protein (Rattus norvegicus (Rat), UniProt O35431 560-745)
T11 construct: Order of GST and PDZ part and limits not seen in the excerpts
T11 chain: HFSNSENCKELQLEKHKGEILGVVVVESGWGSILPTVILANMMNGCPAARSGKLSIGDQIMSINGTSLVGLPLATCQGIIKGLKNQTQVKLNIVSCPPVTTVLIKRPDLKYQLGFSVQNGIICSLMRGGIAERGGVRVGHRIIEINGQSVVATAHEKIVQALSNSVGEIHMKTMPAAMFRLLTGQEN

T12: K858 PDZ-GST fusion protein (Homo sapiens (Human), UniProt Q8WWI1 1038-1131)
T12 construct: Order of GST and PDZ part and limits not seen in the excerpts
T12 sequence: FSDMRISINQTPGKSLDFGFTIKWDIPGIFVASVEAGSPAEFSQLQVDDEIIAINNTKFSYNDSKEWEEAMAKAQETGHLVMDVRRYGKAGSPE

T13: ConEn PDZ-GST fusion protein (Homo sapiens (Human), UniProt Q969H4 193-287)
T13 construct: The label ConEn is not explained in the excerpts
T13 sequence: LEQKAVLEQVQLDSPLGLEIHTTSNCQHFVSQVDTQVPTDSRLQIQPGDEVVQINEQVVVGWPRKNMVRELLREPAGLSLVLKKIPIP


How the values were obtained:
Experiment in all cases: A/G assays
[1] = biological target: T1, GST-CASK PDZ domain fusion protein
[2] = biological target: T2, GST-TAX-IP43 PDZ domain fusion protein
[3] = biological target: T3, GST-TAX-IP2 PDZ domain fusion protein
[4] = biological target: T4, GST-PTN-4 PDZ domain fusion protein
[5] = biological target: T5, GST-MPP1 PDZ domain fusion protein
[6] = biological target: T6, GST-prIL16 fusion protein (PDZ domains …)
[7] = biological target: T7, GST-cytohesin binding protein PDZ …
[8] = biological target: T8, GST-AF6 PDZ domain fusion protein
[9] = biological target: T9, GST-RGS12 PDZ domain fusion protein
[10] = biological target: T10, GST-mouse syntenin fusion protein
[11] = biological target: T11, X11β PDZ-GST fusion protein
[12] = biological target: T14, PICK1 PDZ-GST fusion protein (Bos taurus (Bovine), UniProt Q2T9M1 17-105)
T14 construct: Order of GST and PDZ part and limits not seen in the excerpts

[13] = biological target: T15, K316 PDZ-GST fusion protein (Homo sapiens (Human), UniProt Q14CM0 72-159)
T15 construct: Order of GST and PDZ part and limits not seen in the excerpts

[14] = biological target: T12, K858 PDZ-GST fusion protein
[15] = biological target: T13, ConEn PDZ-GST fusion protein

T14 sequence (Q2T9M1 other isoform, or with tags, fused parts or gaps limits assumed): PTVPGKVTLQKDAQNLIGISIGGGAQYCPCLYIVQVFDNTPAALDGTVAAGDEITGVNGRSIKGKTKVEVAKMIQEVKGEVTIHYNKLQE
T15 sequence (Q14CM0 72-159 limits assumed): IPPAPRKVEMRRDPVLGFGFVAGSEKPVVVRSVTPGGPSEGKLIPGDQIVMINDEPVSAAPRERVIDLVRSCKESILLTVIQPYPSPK

| Binder | binding result [1] | binding result [2] | binding result [3] | binding result [4] | binding result [5] | binding result [6] | binding result [7] | binding result [8] | binding result [9] | binding result [10] | binding result [11] | binding result [12] | binding result [13] | binding result [14] | binding result [15] |
| --- | --- | --- | --- | --- | --- | --- | --- | --- | --- | --- | --- | --- | --- | --- | --- |
| Biotin-VTSPNKHLGLVTPHKTELV [CD83 C-terminal peptide AA47L, biotinylated] | no binding | no binding | no binding | no binding | no binding | no binding | no binding | no binding | no binding | no binding | no binding | no binding | no binding | no binding | no binding |
| Biotin-LASKSAEEGKQIPDSLSTDL [DOCK2 C-terminal peptide AA40L, biotinylated] | no binding | no binding | no binding | no binding | no binding | no binding | no binding | no binding | no binding | no binding | no binding | no binding | no binding | no binding | no binding |
| Biotin-KKGTYLTDETHREVKFTSL [CD46 (Form 1) C-terminal peptide AA10L, biotinylated] | no binding | no binding | no binding | no binding | no binding | no binding | no binding | no binding | no binding | no binding | no binding | no binding | no binding | no binding | no binding |
| Biotin-YSATYSELEDPGEMSPPIDL (also called FceRlb; FcεRβI) [FceRIb C-terminal peptide AA25L, biotinylated] | no binding | no binding | no binding | no binding | no binding | no binding | no binding | no binding | no binding | no binding | no binding | no binding | no binding | no binding | no binding |

More lines, now with the values ahead:

| binding result [1] | binding result [2] | binding result [3] | binding result [4] | binding result [5] | binding result [6] | binding result [7] | binding result [8] | binding result [9] | binding result [10] | binding result [11] | binding result [12] | binding result [13] | binding result [14] | binding result [15] | Binder |
| --- | --- | --- | --- | --- | --- | --- | --- | --- | --- | --- | --- | --- | --- | --- | --- |
| no binding | no binding | no binding | no binding | no binding | no binding | no binding | no binding | no binding | no binding | no binding | no binding | no binding | no binding | no binding | Biotin-DLGNMEENKKLEENNHKTEA (also called CD166 (CD6L)) [CD166 C-terminal peptide AA20L, biotinylated] |
| no binding | no binding | no binding | no binding | no binding | no binding | no binding | no binding | no binding | no binding | no binding | no binding | no binding | no binding | no binding | Biotin-LERVSSTSPSTGEHELSAGF (Only the last four residues are seen in the excerpts) [CC CKR-1R C-terminal peptide AA41L] |
| no binding | no binding | no binding | no binding | no binding | no binding | no binding | no binding | no binding | no binding | no binding | no binding | no binding | no binding | no binding | Biotin-GKGKSIGRAPEASLQDKEGA (Only the last four residues are seen in the excerpts) [CC CKR-2 C-terminal peptide AA42L] |
| no binding | no binding | no binding | no binding | no binding | no binding | no binding | no binding | no binding | no binding | no binding | no binding | no binding | no binding | no binding | Biotin-PSWRRSSLSESENATSLTTF (also called CXCR5) [BLR-1 C-terminal peptide AA45L, biotinylated] |
